Measured values from patent US20150299322A1 (Dana-Farber, published 2015).

B5: mouse PD-1 (mPD-1) expressed on transfected 300 cells (receptor, UniProt Q02242 25-288, looked up)
chain: LEVPNGPWRSLTFYPAWLTVSEGANATFTCSLSNWSEDLMLNWNRLSPSNQTEKQAAFCNGLSQPVQDARFQIIQLPNRHDFHMNILDTRRNDSGIYLCGAISLHPKAKIEESPGAELVVTERILETSTRYPSPSPKPEGRFQGMVIGIMSALVGIPVLLLLAWALAVFCSTSMSEARGAGSKDDTLKEEPSAAPVPSVAYEELDFQGREKTPELPTACVHTEYATIVFTEGLGASAMGRRGSADGLQGPRPPRHEDGHCSWPL
notes: whole, on cells; also called 300-mPD-1 cells; mPD-1 cells

Key:
[1] = molecular target: T1, recombinant hRGMb-HIS (R&D) (human, UniProt Q6NW40 46-413); assay: ELISA, coated hRGMb-HIS, PD-L2-Ig in solution
T1 construct: Bought from R&D; not shown: HIS tag
T1 sequence: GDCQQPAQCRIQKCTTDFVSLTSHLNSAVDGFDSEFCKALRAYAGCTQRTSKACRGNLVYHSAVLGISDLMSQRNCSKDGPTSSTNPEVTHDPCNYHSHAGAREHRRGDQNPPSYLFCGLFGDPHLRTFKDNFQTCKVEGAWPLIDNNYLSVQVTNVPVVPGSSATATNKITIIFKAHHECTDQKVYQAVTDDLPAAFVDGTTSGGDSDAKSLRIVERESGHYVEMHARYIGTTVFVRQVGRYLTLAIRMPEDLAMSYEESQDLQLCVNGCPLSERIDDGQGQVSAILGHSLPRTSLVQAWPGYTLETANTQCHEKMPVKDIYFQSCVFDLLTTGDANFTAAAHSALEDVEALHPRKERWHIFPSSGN
Experimental: (§1) To examine RGMa/RGMb/RGMc and PD-L2 interaction, 96-well ELISA plates were coated with 2 or 5 μg/ml of recombinant mRGMa-HIS, mRGMb-HIS, mRGMc-HIS, or hRGMb-HIS (R&D). Then, serial dilutions of mPD-L2-hIgG1/IgA, mPD-L2-mIgG2a/IgA, hPD-L2-mIgG2a or control-Ig fusion proteins were added and incubated for 1h at 37° C. Fab₂ goat anti-hIgG-HRP (Jackson ImmunoResearch Laboratories) or rat anti-mIgG2a-HRP (BD Biosciences) at 1:1000 or 1:10000 were used for detection.

[2] = molecular target: T2, recombinant mRGMb-HIS (R&D) (mouse, UniProt Q7TQ33 49-415, limits assumed); assay: ELISA, coated mRGMb-HIS, PD-L2-Ig in solution
T2 construct: Bought from R&D; not shown: HIS tag
T2 sequence (looked up): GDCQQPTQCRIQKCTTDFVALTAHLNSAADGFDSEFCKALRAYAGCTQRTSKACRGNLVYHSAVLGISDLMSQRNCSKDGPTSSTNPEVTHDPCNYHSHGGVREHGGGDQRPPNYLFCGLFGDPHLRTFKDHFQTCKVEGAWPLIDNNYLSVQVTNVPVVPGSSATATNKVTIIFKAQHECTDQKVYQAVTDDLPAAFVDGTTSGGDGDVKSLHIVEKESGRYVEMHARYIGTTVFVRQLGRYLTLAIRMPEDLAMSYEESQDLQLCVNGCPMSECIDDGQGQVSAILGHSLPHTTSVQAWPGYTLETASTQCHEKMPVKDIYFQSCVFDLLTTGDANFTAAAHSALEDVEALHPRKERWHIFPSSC
Experimental: as §1

[3] = molecular target: T3, mRGMb-Ig fusion protein (mRGMb-mIgG2a) (mouse, UniProt Q7TQ33 49-415, limits assumed); assay: flow cytometry on mPD-L2 transfected 300 cells
T3 construct: extracellular domain; Purified from CHO cell culture supernatants
T3 sequence (looked up): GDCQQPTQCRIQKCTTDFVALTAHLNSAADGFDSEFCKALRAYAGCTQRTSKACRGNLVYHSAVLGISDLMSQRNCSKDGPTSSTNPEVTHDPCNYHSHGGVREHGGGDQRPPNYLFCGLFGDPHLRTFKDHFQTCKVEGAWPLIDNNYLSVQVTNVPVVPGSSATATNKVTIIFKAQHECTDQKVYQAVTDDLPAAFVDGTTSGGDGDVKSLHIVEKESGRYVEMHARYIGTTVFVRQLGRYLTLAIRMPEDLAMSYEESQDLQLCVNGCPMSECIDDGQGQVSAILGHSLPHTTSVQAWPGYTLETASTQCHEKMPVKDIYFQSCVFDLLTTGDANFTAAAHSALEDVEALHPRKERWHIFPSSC

[4] = molecular target: B5; assay: cell conjugation assay, flow cytometry
Experimental: (§2) An assay for receptor-ligand binding was developed based on cell to cell binding as determined by flow cytometry. One transfected cell type was labelled with the red dye PKH26 (Sigma) and the other transfected cell with the green dye PKH67 (Sigma) according to the manufacturer's instructions. Red dye-labelled and green dye-labelled cells ([…] each cell type) were incubated in 200 μl of HBSS buffer without calcium and magnesium (GIBCO) supplemented with 10% heat-inactivated FBS (Invitrogen), 15 μg/ml gentamicin (Invitrogen) and 1% HEPES (Invitrogen) in a round bottom 96-well plate for 45 min at 37° C. When the cell conjugation assay was used to test the blocking capacity of antibodies, one transfected cell type was pre-incubated 30 min at RT with antibodies before adding the other type of transfected cells. Conjugate formation was analyzed immediately by flow cytometry using the PE channel for the red dye and the FITC channel for the green dye. The automated plate harvester of the FACSCanto (BD Biosciences) was used for uniformity of cell processing. The instrument settings were as follows, throughput mode: standard, loader settings: sample flow rate at 0.5 μl/second, sample volume and mixing volume at 100 μl, mixing speed at 50 μl/second, number of mixes at 2, and wash volume at 400 μl.
(§3) To test the RGMb:PD-L2 interaction under more physiologic conditions, a cell conjugation assay was used where one transfected cell type was labeled with a red dye and the other transfected cell type with a green dye. The binding of the two cell types was assessed by flow cytometry and indicated by double positive events (yellow dots). […] FIGS. 1L, 1N, 1P, and 1R show only the dot plots without corresponding FSC-SSC plots. As expected, mRGMb cells bound to mPD-L2 cells (FIG. 1K), but not mPD-L1 cells (FIG. 1L). As positive controls, mPD-1 cells bound to both mPD-L2 and mPD-L1 cells (FIGS. 1M-1N). Negative control binding assays had very few conjugates (<0.3%) (FIGS. 1O-1R).

[5] = molecular target: T4, mouse RGMb (mRGMb) expressed on transfected cells (mouse, UniProt Q7TQ33 49-415); assay: cell conjugation assay, flow cytometry
T4 construct: whole, on cells; Also used for mRGMb in cell lysates (Western blot); also called DRAGON; 300-mRGMb cells
T4 sequence (looked up): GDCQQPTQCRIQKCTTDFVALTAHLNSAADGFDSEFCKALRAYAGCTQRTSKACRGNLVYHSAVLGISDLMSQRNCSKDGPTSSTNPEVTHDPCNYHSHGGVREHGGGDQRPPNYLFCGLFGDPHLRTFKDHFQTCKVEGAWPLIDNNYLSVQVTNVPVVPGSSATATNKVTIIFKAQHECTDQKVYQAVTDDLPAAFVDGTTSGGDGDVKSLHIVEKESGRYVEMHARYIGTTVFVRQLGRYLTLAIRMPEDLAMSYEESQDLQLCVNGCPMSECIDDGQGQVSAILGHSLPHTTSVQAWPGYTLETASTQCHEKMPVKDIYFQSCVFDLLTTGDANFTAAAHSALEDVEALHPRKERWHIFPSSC
Experimental: as §2, §3

[6] = molecular target: T5, mPD-L2-Ig fusion protein (construct not told at the result) (mouse, UniProt Q9WUL5 20-221); assay: ELISA, coated BMP-2, PD-L2-Ig added without RGMb
T5 construct: extracellular domain; not shown: Ig part: the methods name mPD-L2-hIgG1/IgA, mPD-L2-mIgG2a/IgA and mPD-L2-hIgG (R&D)
T5 sequence (looked up): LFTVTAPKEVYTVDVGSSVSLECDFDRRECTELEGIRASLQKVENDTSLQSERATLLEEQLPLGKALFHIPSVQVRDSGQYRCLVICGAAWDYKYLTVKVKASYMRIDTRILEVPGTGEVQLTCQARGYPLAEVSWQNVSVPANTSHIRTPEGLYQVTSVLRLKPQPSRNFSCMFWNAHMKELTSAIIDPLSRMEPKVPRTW
Experimental: (§4) To determine if RGMb binds PD-L2 and BMP-2/4 simultaneously, 96-well ELISA plates were coated with BMP-2/4 as above. mPD-L2-hIgG1/IgA, mPD-L2-hIgG (R&D), mPD-L1-hIgG (R&D) or control-Ig fusion proteins at 10 μg/ml were preincubated with 10 μg/ml mRGMb-HIS (R&D) or buffer alone for 15 min. at room temperature (RT), then added to the plates and incubated for 1h at 37° C. Alternatively, 10 μg/ml mRGMb-HIS (R&D) or buffer alone was added first to the plates and incubated for 1h at 37° C. After wash, mPD-L2-Ig or control-Ig fusion proteins were added and incubated for 1h at 37° C. Fab₂ goat anti-hIgG-HRP (Jackson ImmunoResearch Laboratories) at 1:10000 was used for detection.
(§5) To test if RGMb can bind both PD-L2 and BMP at the same time, an ELISA was performed to analyze the binding capacity of PD-L2-Ig fusion protein to immobilized BMP-2/4 in the presence or absence of RGMb. PD-L2 could not directly bind to BMP-2/4, but in the presence of RGMb could form a complex with BMP when RGMb and PD-L2-Ig were added simultaneously (FIG. 4A-4B) or sequentially to BMP-2/4.

[7] = molecular target: T2, recombinant mRGMb-HIS (R&D); assay: ELISA, coated BMP-2, mRGMb-HIS bridging PD-L2-Ig
Experimental: as §4, §5

[8] = molecular target: T5, mPD-L2-Ig fusion protein (construct not …); assay: ELISA, coated BMP-4, PD-L2-Ig added without RGMb
Experimental: as §4, §5

[9] = molecular target: T2, recombinant mRGMb-HIS (R&D); assay: ELISA, coated BMP-4, mRGMb-HIS bridging PD-L2-Ig
Experimental: as §4, §5

[10] = molecular target: T6, mouse PD-L1 (mPD-L1) expressed on transfected 300 cells (mouse, UniProt Q9EP73 19-290); assay: cell conjugation assay, flow cytometry
T6 construct: whole, on cells; also called 300-mPDL 1; mPD-L1 cells
T6 sequence (Q9EP73 19-290): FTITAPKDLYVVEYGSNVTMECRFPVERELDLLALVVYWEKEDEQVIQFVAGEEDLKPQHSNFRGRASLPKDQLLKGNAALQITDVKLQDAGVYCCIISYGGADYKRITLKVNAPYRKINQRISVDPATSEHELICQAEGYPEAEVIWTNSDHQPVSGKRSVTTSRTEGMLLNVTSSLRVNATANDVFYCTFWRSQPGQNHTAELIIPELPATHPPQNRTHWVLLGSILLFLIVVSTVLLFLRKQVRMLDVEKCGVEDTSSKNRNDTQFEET
Experimental: as §2, §3

B1: hPD-L2-mIgG2a fusion protein (Fc fusion)
chain: LFTVTVPKELYIIEHGSNVTLECNFDTGSHVNLGAITASLQKVENDTSPHRERATLLEEQLPLGKASFHIPQVQVRDEGQYQCIIIYGVAWDYKYLTLKVKASYRKINTHILKVPETDEVELTCQATGYPLAEVSWPNVSVPANTSHSRTPEGLYQVTSVLRLKPPPGRNFSCVFWNTHVRELTLASIDLQSQMEPRTHPT
notes: not shown: mouse IgG2a part
binding result [1]: binds | binding result [2]: binds

B2: mouse PD-L2 (mPD-L2) expressed on transfected 300 cells (ligand, UniProt Q9WUL5 20-247, looked up)
chain: LFTVTAPKEVYTVDVGSSVSLECDFDRRECTELEGIRASLQKVENDTSLQSERATLLEEQLPLGKALFHIPSVQVRDSGQYRCLVICGAAWDYKYLTVKVKASYMRIDTRILEVPGTGEVQLTCQARGYPLAEVSWQNVSVPANTSHIRTPEGLYQVTSVLRLKPQPSRNFSCMFWNAHMKELTSAIIDPLSRMEPKVPRTWPLHVFIPACTIALIFLAIVIIQRKRI
notes: whole, on cells; also called 300-mPD-L2 cells; mPD-L2 transfected cells
binding result [3]: binds | binding result [4]: binds | binding result [5]: binds

B3: recombinant mouse BMP-2 (GIBCO) (ligand, UniProt P21274 281-394, looked up)
chain: QAKHKQRKRLKSSCKRHPLYVDFSDVGWNDWIVAPPGYHAFYCHGECPFPLADHLNSTNHAIVQTLVNSVNSKIPKACCVPTELSAISMLYLDENEKVVLKNYQDMVVEGCGCR
notes: Coated on ELISA plates at 1 ug/ml; also called mBMP-2; BMP-2/4
binding result [6]: no binding (tested: 10 ug/ml) | binding result [7]: binds

B4: recombinant mouse BMP-4 (R&D) (ligand, UniProt P21275 293-408, looked up)
chain: SPKHHPQRSRKKNKNCRRHSLYVDFSDVGWNDWIVAPPGYQAFYCHGDCPFPLADHLNSTNHAIVQTLVNSVNSSIPKACCVPTELSAISMLYLDEYDKVVLKNYQEMVVEGCGCR
notes: Coated on ELISA plates at 1 ug/ml; also called mBMP-4; BMP-2/4
binding result [8]: no binding (tested: 10 ug/ml) | binding result [9]: binds

B5
binding result [10]: binds
